Laboratory results: US9896495 (ZEALAND PHARMA A S, dated 2018)
*1 amine or outer side, *2 acyl side, *3 side chain or, on linkers, in order; H or OH if unused. Side-chain parts run from the residue outwards. [ ]: non-standard residue; d: D form. The star is where a group is joined. C18 diacid = O=C(O)CCCCCCCCCCCCCCCCC(=O)*; γGlu = O=C(O)[C@H](CCC(=O)[*:2])N[*:1]; Ac4c = NC1(C(=O)O)CCC1; Aib = CC(C)(N)C(=O)O

Legend:
Test in all cases: cell-based or functional assay
[1] = target: T1, endogenous GLP-1 receptor of a murine insulinoma cell line (murine, UniProt O35659 22-463)
T1 sequence (looked up): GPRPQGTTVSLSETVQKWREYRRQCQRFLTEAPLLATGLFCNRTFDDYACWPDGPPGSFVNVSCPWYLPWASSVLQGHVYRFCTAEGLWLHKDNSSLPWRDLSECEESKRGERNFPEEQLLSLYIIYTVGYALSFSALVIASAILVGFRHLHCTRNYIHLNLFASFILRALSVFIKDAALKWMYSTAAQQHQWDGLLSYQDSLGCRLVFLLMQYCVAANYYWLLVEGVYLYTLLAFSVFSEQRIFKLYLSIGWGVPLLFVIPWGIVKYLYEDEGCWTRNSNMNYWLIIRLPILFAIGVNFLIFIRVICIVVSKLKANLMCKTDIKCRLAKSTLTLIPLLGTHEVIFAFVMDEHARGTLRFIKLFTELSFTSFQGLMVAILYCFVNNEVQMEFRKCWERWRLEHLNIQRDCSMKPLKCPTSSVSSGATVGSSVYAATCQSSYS

[2] = target: endogenous glucagon receptor of primary rat hepatocytes (rat, UniProt P30082 27-485)
[3] = target: human glucagon-like peptide 1 receptor (GLP-1R) (human, UniProt P43220 24-463)
[4] = target: human glucagon receptor (Glucagon-R) (human, UniProt P47871 26-477)
human glucagon receptor (Glucagon-R), sequence (P47871 26-477): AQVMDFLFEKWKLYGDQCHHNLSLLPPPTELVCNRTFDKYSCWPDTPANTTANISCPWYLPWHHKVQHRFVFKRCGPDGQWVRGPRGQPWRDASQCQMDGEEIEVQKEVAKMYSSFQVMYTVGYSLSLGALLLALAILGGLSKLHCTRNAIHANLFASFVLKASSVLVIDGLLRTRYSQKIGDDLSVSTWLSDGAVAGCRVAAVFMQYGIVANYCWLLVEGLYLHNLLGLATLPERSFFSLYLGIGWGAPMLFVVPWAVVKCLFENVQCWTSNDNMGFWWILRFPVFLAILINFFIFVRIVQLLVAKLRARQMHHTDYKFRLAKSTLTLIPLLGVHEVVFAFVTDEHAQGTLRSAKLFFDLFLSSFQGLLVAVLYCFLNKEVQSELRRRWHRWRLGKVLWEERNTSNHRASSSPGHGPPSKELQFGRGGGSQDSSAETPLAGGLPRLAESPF

endogenous glucagon receptor of primary rat hepatocytes, sequence (P30082 27-485): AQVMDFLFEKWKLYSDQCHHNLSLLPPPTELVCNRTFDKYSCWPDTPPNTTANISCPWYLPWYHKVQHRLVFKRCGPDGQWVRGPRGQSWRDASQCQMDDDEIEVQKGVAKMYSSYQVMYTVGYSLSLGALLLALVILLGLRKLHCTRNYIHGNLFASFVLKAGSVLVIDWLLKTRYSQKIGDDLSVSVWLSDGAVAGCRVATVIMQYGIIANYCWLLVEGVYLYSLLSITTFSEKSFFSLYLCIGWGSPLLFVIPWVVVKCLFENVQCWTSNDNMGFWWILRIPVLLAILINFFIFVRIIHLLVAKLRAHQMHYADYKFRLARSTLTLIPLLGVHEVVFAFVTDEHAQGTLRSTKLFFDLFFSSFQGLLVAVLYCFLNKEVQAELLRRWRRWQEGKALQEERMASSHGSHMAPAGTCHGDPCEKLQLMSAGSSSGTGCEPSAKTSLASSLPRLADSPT

B1: H-H-Ac4c-QGTFTSDYSKYLDERAAKDFIEWLE-K([17-carboxy-heptadecanoyl]-isoGlu-GSGSGG)-A-NH2 (peptide)
peptide: HXQGTFTSDYSKYLDERAAKDFIEWLEKA
modifications: Ac4c at position 2; Lys 28 side chain conjugated to [17-carboxy-heptadecanoyl]-isoGlu-GSGSGG; C-terminal amide
**Q.** Which “EC50 [nM] (cAMP in a murine insulinoma cell line)” value [1] does the source give for B1 here?
**A.** 0.25 nM

**Q.** What about the “EC50 [nM] (inhibition of glycogen synthesis rate in primary rat hepatocytes)” value [2] of the same binder?
**A.** 3.63 nM

**Q.** And the “EC50 hGLP-1R CHO-K1 [nM] (cAMP, AlphaScreen)” value (shortened to “EC50 hGLP-1R CHO-K1 [nM]”) [3]?
**A.** 0.61 nM

**Q.** What about the “EC50 hGCGR CHO-K1 [nM] (cAMP, AlphaScreen)” value (from here on “EC50 hGCGR CHO-K1 [nM]”) [4] of the same binder?
**A.** 0.92 nM

B2: H-H-Ac4c-QGTFTSDYSKYLDE-K([17-carboxy-heptadecanoyl]-isoGlu)-RAKDFIEWLESA-NH2 (peptide)
peptide: H-H[Ac4c]QGTFTSDYSKYLDEK([γGlu-C18 diacid])RAKDFIEWLESA-NH2
SMILES: CC[C@H](C)[C@H](NC(=O)[C@H](Cc1ccccc1)NC(=O)[C@H](CC(=O)O)NC(=O)[C@H](CCCCN)NC(=O)[C@H](C)NC(=O)[C@H](CCCNC(=N)N)NC(=O)[C@H](CCCCNC(=O)CC[C@H](NC(=O)CCCCCCCCCCCCCCCCC(=O)O)C(=O)O)NC(=O)[C@H](CCC(=O)O)NC(=O)[C@H](CC(=O)O)NC(=O)[C@H](CC(C)C)NC(=O)[C@H](Cc1ccc(O)cc1)NC(=O)[C@H](CCCCN)NC(=O)[C@H](CO)NC(=O)[C@H](Cc1ccc(O)cc1)NC(=O)[C@H](CC(=O)O)NC(=O)[C@H](CO)NC(=O)[C@@H](NC(=O)[C@H](Cc1ccccc1)NC(=O)[C@@H](NC(=O)CNC(=O)[C@H](CCC(N)=O)NC(=O)C1(NC(=O)[C@@H](N)Cc2c[nH]cn2)CCC1)[C@@H](C)O)[C@@H](C)O)C(=O)N[C@@H](CCC(=O)O)C(=O)N[C@@H](Cc1c[nH]c2ccccc12)C(=O)N[C@@H](CC(C)C)C(=O)N[C@@H](CCC(=O)O)C(=O)N[C@@H](CO)C(=O)N[C@@H](C)C(N)=O
**Q.** For B2, which “EC50 [nM] (cAMP in a murine insulinoma cell line)” value [1] is on record?
**A.** 0.81 nM

**Q.** And the “EC50 [nM] (inhibition of glycogen synthesis rate in primary rat hepatocytes)” value [2]?
**A.** 0.45 nM

**Q.** And the “EC50 hGLP-1R CHO-K1 [nM]” value [3]?
**A.** 0.48 nM

**Q.** What about the “EC50 hGCGR CHO-K1 [nM]” value [4] of the same binder?
**A.** 0.07 nM

**Q.** With H-H[Aib]QGTFTSDYSKYLDK([Peg3-Peg3-γGlu-C18 diacid])RAAKDFIEWLESA-NH2 [H-H-Aib-QGTFTSDYSKYLD-K([17-carboxy-heptadecanoyl]-isoGlu-Peg3-Peg3)-RAAKDFIEWLESA-NH2] as the binder, how does the “EC50 [nM] (cAMP in a murine insulinoma cell line)” value [1] read?
**A.** 0.69 nM

**Q.** What about the “EC50 [nM] (inhibition of glycogen synthesis rate in primary rat hepatocytes)” value [2] of the same binder?
**A.** 0.11 nM

**Q.** And the “EC50 hGLP-1R CHO-K1 [nM]” value [3]?
**A.** 1.76 nM

**Q.** And the “EC50 hGCGR CHO-K1 [nM]” value [4]?
**A.** 0.13 nM

B3: H-H-Aib-QGTFTSDYSKYLD-K([17-carboxy-heptadecanoyl]-isoGlu-GSGSGG)-RAAKDFIEWLESA-NH2 (peptide)
peptide: HXQGTFTSDYSKYLDKRAAKDFIEWLESA
modifications: Aib at position 2; Lys 16 side chain conjugated to [17-carboxy-heptadecanoyl]-isoGlu-GSGSGG; C-terminal amide
**Q.** How did the “EC50 [nM] (cAMP in a murine insulinoma cell line)” value [1] turn out when B3 was run?
**A.** 0.65 nM

**Q.** And the “EC50 [nM] (inhibition of glycogen synthesis rate in primary rat hepatocytes)” value [2]?
**A.** 0.21 nM

**Q.** And the “EC50 hGLP-1R CHO-K1 [nM]” value [3]?
**A.** 0.83 nM

**Q.** And the “EC50 hGCGR CHO-K1 [nM]” value [4]?
**A.** 0.18 nM

**Q.** How did the “EC50 [nM] (cAMP in a murine insulinoma cell line)” value [1] turn out when H-H[Ac4c]HGTFTSDYSKYLDEK([Peg3-Peg3-γGlu-C18 diacid])RAKDFIEWLESA-NH2 [H-H-Ac4c-HGTFTSDYSKYLDE-K([17-carboxy-heptadecanoyl]-isoGlu-Peg3-Peg3)-RAKDFIEWLESA-NH2] was run?
**A.** 0.84 nM

**Q.** And the “EC50 [nM] (inhibition of glycogen synthesis rate in primary rat hepatocytes)” value [2]?
**A.** 0.11 nM

**Q.** What about the “EC50 hGLP-1R CHO-K1 [nM]” value [3] of the same binder?
**A.** 0.97 nM

**Q.** What about the “EC50 hGCGR CHO-K1 [nM]” value [4] of the same binder?
**A.** 0.07 nM

B4: H-H-Ac4c-QGTFTSDYSKYLDE-K([17-carboxy-heptadecanoyl]-isoGlu)-AAKDFIEWLESA-NH2 (peptide)
peptide: H-H[Ac4c]QGTFTSDYSKYLDEK([γGlu-C18 diacid])AAKDFIEWLESA-NH2
SMILES: CC[C@H](C)[C@H](NC(=O)[C@H](Cc1ccccc1)NC(=O)[C@H](CC(=O)O)NC(=O)[C@H](CCCCN)NC(=O)[C@H](C)NC(=O)[C@H](C)NC(=O)[C@H](CCCCNC(=O)CC[C@H](NC(=O)CCCCCCCCCCCCCCCCC(=O)O)C(=O)O)NC(=O)[C@H](CCC(=O)O)NC(=O)[C@H](CC(=O)O)NC(=O)[C@H](CC(C)C)NC(=O)[C@H](Cc1ccc(O)cc1)NC(=O)[C@H](CCCCN)NC(=O)[C@H](CO)NC(=O)[C@H](Cc1ccc(O)cc1)NC(=O)[C@H](CC(=O)O)NC(=O)[C@H](CO)NC(=O)[C@@H](NC(=O)[C@H](Cc1ccccc1)NC(=O)[C@@H](NC(=O)CNC(=O)[C@H](CCC(N)=O)NC(=O)C1(NC(=O)[C@@H](N)Cc2c[nH]cn2)CCC1)[C@@H](C)O)[C@@H](C)O)C(=O)N[C@@H](CCC(=O)O)C(=O)N[C@@H](Cc1c[nH]c2ccccc12)C(=O)N[C@@H](CC(C)C)C(=O)N[C@@H](CCC(=O)O)C(=O)N[C@@H](CO)C(=O)N[C@@H](C)C(N)=O
**Q.** How did the “EC50 [nM] (cAMP in a murine insulinoma cell line)” value [1] turn out when B4 was run?
**A.** 0.72 nM

**Q.** What about the “EC50 [nM] (inhibition of glycogen synthesis rate in primary rat hepatocytes)” value [2] of the same binder?
**A.** 0.95 nM

**Q.** And the “EC50 hGLP-1R CHO-K1 [nM]” value [3]?
**A.** 0.56 nM

**Q.** What about the “EC50 hGCGR CHO-K1 [nM]” value [4] of the same binder?
**A.** 0.28 nM

B5: H-H-Ac4c-QGTFTSDYSKYLDERRAKDFIEWLE-K([17-carboxy-heptadecanoyl]-isoGlu-GSGSGG)-A-NH2 (peptide)
peptide: HXQGTFTSDYSKYLDERRAKDFIEWLEKA
modifications: Ac4c at position 2; Lys 28 side chain conjugated to [17-carboxy-heptadecanoyl]-isoGlu-GSGSGG; C-terminal amide
**Q.** Which “EC50 [nM] (cAMP in a murine insulinoma cell line)” value [1] does the source give for B5 here?
**A.** 0.34 nM

**Q.** And the “EC50 [nM] (inhibition of glycogen synthesis rate in primary rat hepatocytes)” value [2]?
**A.** 0.19 nM

**Q.** And the “EC50 hGLP-1R CHO-K1 [nM]” value [3]?
**A.** 0.53 nM

**Q.** What about the “EC50 hGCGR CHO-K1 [nM]” value [4] of the same binder?
**A.** 0.16 nM

B6: H-H-Aib-QGTFTSDYSKYLDERAAKDFI-K([17-carboxy-heptadecanoyl]-isoGlu-GSGSGG)-WLESA-NH2 (peptide)
peptide: HXQGTFTSDYSKYLDERAAKDFIKWLESA
modifications: Aib at position 2; Lys 24 side chain conjugated to [17-carboxy-heptadecanoyl]-isoGlu-GSGSGG; C-terminal amide
**Q.** Which results are given for B6?
**A.** EC50 [nM] (cAMP in a murine insulinoma cell line) [1]: 0.15 nM; EC50 [nM] (inhibition of glycogen synthesis rate in primary rat hepatocytes) [2]: 0.94 nM; EC50 hGLP-1R CHO-K1 [nM] (cAMP, AlphaScreen) [3]: 0.7 nM; EC50 hGCGR CHO-K1 [nM] (cAMP, AlphaScreen) [4]: 1.48 nM
